We go through 23 molecules from patent US20250326817A1 (LA JOLLA INSTITUTE FOR IMMUNOLOGY, published 2025).

T1: mouse BTLA, full length, fused to EGFP, on HEK293 FreeStyle cells (mouse, UniProt Q7TSA3 30-306)
T1 construct: whole, on cells; also called mBTLA; mBTLA-EGFP; not shown: EGFP fused at the C-terminus (pEGFP-N1 vector)
T1 sequence (looked up): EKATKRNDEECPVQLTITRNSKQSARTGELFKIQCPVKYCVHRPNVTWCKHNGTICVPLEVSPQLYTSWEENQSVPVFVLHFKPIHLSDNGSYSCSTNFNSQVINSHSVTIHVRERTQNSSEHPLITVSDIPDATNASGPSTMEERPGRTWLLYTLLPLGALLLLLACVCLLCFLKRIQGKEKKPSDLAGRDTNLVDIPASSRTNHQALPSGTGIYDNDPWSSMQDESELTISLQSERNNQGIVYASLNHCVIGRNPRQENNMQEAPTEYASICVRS

T2: mouse LIGHT, full length, on transfected cells (mouse, UniProt Q9QYH9 1-239)
T2 construct: whole, on cells; also called mLIGHT; mLIGHT-IRES-EGFP
T2 sequence (looked up): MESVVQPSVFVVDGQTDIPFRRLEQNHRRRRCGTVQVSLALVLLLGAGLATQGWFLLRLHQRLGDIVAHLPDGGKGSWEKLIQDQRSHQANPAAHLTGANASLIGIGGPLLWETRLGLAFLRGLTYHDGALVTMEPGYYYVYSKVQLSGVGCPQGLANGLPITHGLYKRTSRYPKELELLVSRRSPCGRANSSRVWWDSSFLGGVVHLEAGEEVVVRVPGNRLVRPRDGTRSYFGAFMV

T3: mouse BTLA, soluble protein (analyte of the Octet assay) (mouse, UniProt Q7TSA3 30-183, limits assumed)
T3 construct: The construct is not described; also called mBTLA; mBTLA-penta-His-tag
T3 sequence (looked up): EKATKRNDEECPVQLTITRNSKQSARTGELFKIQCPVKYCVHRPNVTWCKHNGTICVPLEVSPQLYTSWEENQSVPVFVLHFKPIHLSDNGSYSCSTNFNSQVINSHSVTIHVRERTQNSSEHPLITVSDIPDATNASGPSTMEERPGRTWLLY

T4: mouse CD160 residues I30-H154 with C-terminal …, refolded from E. coli inclusion bodies (mouse, UniProt O88875 30-154, biotin (mCD160-biotin in the cell staining assay; site not stated))
T4 construct: range 30-154; also called mCD160; mCD160-biotin
T4 sequence: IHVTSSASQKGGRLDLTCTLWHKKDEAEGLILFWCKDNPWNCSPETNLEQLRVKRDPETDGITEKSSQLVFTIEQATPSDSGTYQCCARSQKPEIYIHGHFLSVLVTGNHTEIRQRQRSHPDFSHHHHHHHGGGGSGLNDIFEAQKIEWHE

B1: mouse HVEM L90A, full length, fused to mCherry, on cells (receptor)
chain: QPSCRQEEFLVGDECCPMCNPGYHVKQVCSEHTGTVCAPCPPQTYTAHANGASKCLPCGVCDPDMGLLTWQECSSWKDTVCRCIPGYFCENQDGSHCSTCLQHTTCPPGQRVEKRGTHDQDTVCADCLTGTFSLGGTQEECLPWTNCSAFQQEVRRGTNSTDTTCSSQVVYYVVSILLPLVIVGAGIAGFLICTRRHLHTSSVAKELEPFQEQQENTIRFPVTEVGFAETEEETASN
notes: also called mHVEM L90A; not shown: mCherry fused at the C-terminus (pmCherry-N1 vector)
B2: mouse HVEM M56D, full length, fused to mCherry, on cells (receptor)
chain: B1 chain with M18D, A52L
notes: also called mHVEM M56D; not shown: mCherry fused at the C-terminus (pmCherry-N1 vector)
B3: mouse HVEM L94A, full length, fused to mCherry, on cells (receptor)
chain: B1 chain with A52L, L56A
notes: also called mHVEM L94A; not shown: mCherry fused at the C-terminus (pmCherry-N1 vector)
B4: mouse HVEM L94D, full length, fused to mCherry, on cells (receptor)
chain: B1 chain with A52L, L56D
notes: also called mHVEM L94D; not shown: mCherry fused at the C-terminus (pmCherry-N1 vector)
B5: mouse HVEM H86D, full length, fused to mCherry, on cells (receptor)
chain: B1 chain with H48D, A52L
notes: also called mHVEM H86D; not shown: mCherry fused at the C-terminus (pmCherry-N1 vector)
B6: mouse HVEM R43D, full length, fused to mCherry, on cells (receptor)
chain: B1 chain with R5D, A52L
notes: also called mHVEM R43D; not shown: mCherry fused at the C-terminus (pmCherry-N1 vector)
B7: mouse HVEM V74D, full length, fused to mCherry, on cells (receptor)
chain: B1 chain with V36D, A52L
notes: also called mHVEM V74D; not shown: mCherry fused at the C-terminus (pmCherry-N1 vector)
B8: mouse HVEM G72D, full length, fused to mCherry, on cells (receptor)
chain: B1 chain with G34D, A52L
notes: also called mHVEM G72D; not shown: mCherry fused at the C-terminus (pmCherry-N1 vector)
B9: mouse HVEM, wild type, full length, fused to mCherry, on HEK293 FreeStyle cells (receptor)
chain: B1 chain with A52L
notes: also called mHVEM; WT mHVEM; not shown: mCherry fused at the C-terminus (pmCherry-N1 vector)
B10: A76D_H86D_L90A (receptor)
chain: B1 chain with A38D, H48D
notes: on HEK293 FreeStyle cells; also called mHVEM A76D-H86D-L90A; not shown: mCherry fused at the C-terminus (pmCherry-N1 vector) and any vector linker
B11: H86D-L90D (receptor)
chain: B1 chain with H48D, A52D
notes: on HEK293 FreeStyle cells; also called mHVEM H86D-L90D; not shown: mCherry reporter (and any vector linker) fused at the cytoplasmic C-terminus (pmCherry-N1)
B12: G72D-V74R (receptor)
chain: B1 chain with G34D, V36R, A52L
notes: on HEK293 FreeStyle cells; also called mHVEM G72D-V74R; not shown: mCherry reporter (and any vector linker) fused at the cytoplasmic C-terminus (pmCherry-N1)
B13: H86D-L90R (receptor)
chain: B1 chain with H48D, A52R
notes: on HEK293 FreeStyle cells; also called mHVEM H86D-L90R; not shown: mCherry reporter (and any vector linker) fused at the cytoplasmic C-terminus (pmCherry-N1)
B14: H86R-L90A (receptor)
chain: B1 chain with H48R
notes: on HEK293 FreeStyle cells; also called mHVEM H86R-L90A; not shown: mCherry reporter (and any vector linker) fused at the cytoplasmic C-terminus (pmCherry-N1)
B15: G72D-V74D (receptor)
chain: B1 chain with G34D, V36D, A52L
notes: on HEK293 FreeStyle cells; also called mHVEM G72D-V74D; not shown: mCherry reporter (and any vector linker) fused at the cytoplasmic C-terminus (pmCherry-N1)
B16: mouse HVEM A76D, full length, fused to mCherry, on cells (receptor)
chain: B1 chain with A38D, A52L
notes: also called mHVEM A76D; not shown: mCherry fused at the C-terminus (pmCherry-N1 vector)
B17: G72A-V74D (receptor)
chain: B1 chain with G34A, V36D, A52L
notes: on HEK293 FreeStyle cells; also called mHVEM G72A-V74D; not shown: mCherry reporter (and any vector linker) fused at the cytoplasmic C-terminus (pmCherry-N1)
B18: mouse HVEM H86D-L90A double mutein, full length, fused to mCherry, on cells (receptor)
chain: B1 chain with H48D
notes: also called mHVEM H86D-L90A; mHVEM^-LIGHT; not shown: mCherry fused at the C-terminus (pmCherry-N1 vector)
B19: H86A-L90A (receptor)
chain: B1 chain with H48A
notes: on HEK293 FreeStyle cells; also called mHVEM H86A-L90A; not shown: mCherry reporter (and any vector linker) fused at the cytoplasmic C-terminus (pmCherry-N1)
B20: A76D_H86D_L90D (receptor)
chain: B1 chain with A38D, H48D, A52D
notes: on HEK293 FreeStyle cells; also called mHVEM A76D-H86D-L90D; not shown: mCherry fused at the C-terminus (pmCherry-N1 vector)
B21: G72D-V74A (receptor)
chain: B1 chain with G34D, V36A, A52L
notes: on HEK293 FreeStyle cells; also called mHVEM G72D-V74A; not shown: mCherry reporter (and any vector linker) fused at the cytoplasmic C-terminus (pmCherry-N1)
B22: mouse HVEM G72R-V74A double mutein, full length, fused to mCherry, on cells (receptor)
chain: B1 chain with G34R, V36A, A52L
notes: also called mHVEM G72R-V74A; mHVEM^-BT/160; not shown: mCherry fused at the C-terminus (pmCherry-N1 vector)
B23: mouse HVEM R43D-M56A-K64D triple mutation, full length, fused to mCherry, on cells (receptor)
chain: B1 chain with R5D, M18A, K26D, A52L
notes: also called mHVEM R43D-M56A-K64D; not shown: mCherry fused at the C-terminus (pmCherry-N1 vector)

Positions count from the first letter of the chain named. In names and notes the source's numbering stands.

The first assay addresses T1, mouse BTLA, full length, fused to EGFP, …. The experiment in a line: flow cytometry, cell-cell interaction assay. The protocol: (§1) After 2˜3 days, the cells were harvested and diluted to […]. […] These cells were further recorded and analyzed by flow cytometry. […] The cells were incubated for 30 min with shaking at room temperature and washed once by PBS containing 0.2% BSA (PBS-BSA). The cells were re-suspended in 100 uL of PBS-BSA and analyzed by flow cytometry.
For orientation: Flow cytometry measures light scatter and fluorescence of single cells or particles in a stream.
As to B1, the binding result is on record as “binds”.

Turning to B2, the binding result was “binds”.

On to B3, for which the binding result is listed as “binds”.

With B4, the binding result was “binds”.

Turning to B5, the binding result was “binds”.

On to B6, for which the binding result is recorded as “binds”.

The target in the next assay is T2, mouse LIGHT, full length, on …. The experiment in a line: flow cytometry, cell-cell interaction assay. The procedure:
as §1
For the molecule B7, the binding result is “binds”.

For B2, the binding result is “binds”.

Consider B8, for which the binding result is reported as “binds”.

With B6, the binding result is recorded as “binds”.

The target in the next assay is T1, mouse BTLA, full length, fused to EGFP, …. The assay is described as follows: cell-cell flow cytometry (mHVEM-mCherry cells + mBTLA-EGFP cells). The procedure: as §1
As to B9, the binding result is given as “binds”.

Regarding B10, the binding result is “binds”.

B11: the binding result is “binds”.

For B12, the binding result is given as “no binding”.

For the molecule B13, the binding result is reported as “binds”.

Regarding B14, the binding result is reported as “binds”.

For the molecule B15, the binding result was “no binding”.

For the molecule B16, the binding result is recorded as “binds”.

Consider B17, for which the binding result is “no binding”.

On to B18, for which the binding result is recorded as “binds”.

For B19, the binding result is recorded as “binds”.

For B20, the binding result is listed as “binds”.

Regarding B21, the binding result was “no binding”.

In the case of B22, the binding result is recorded as “no binding”.

Another assay deals with T2, mouse LIGHT, full length, on …. The experiment in a line: cell-cell flow cytometry (mHVEM-mCherry cells + mLIGHT-IRES-EGFP cells). The protocol: as §1
With B9, the binding result was “binds”.

In the case of B10, the binding result is “no binding”.

With B11, the binding result is recorded as “no binding”.

Take B12: the binding result was “binds”.

Turning to B13, the binding result is “no binding”.

Turning to B14, the binding result was “no binding”.

Turning to B15, the binding result is “binds”.

Take B16: the binding result is given as “binds”.

B17: the binding result is recorded as “binds”.

On to B19, for which the binding result is on record as “no binding”.

B20: the binding result is reported as “no binding”.

Regarding B21, the binding result is on record as “binds”.

In the case of B22, the binding result was “binds”.

Another assay addresses T3, mouse BTLA, soluble protein (analyte of …). The experiment in a line: cell-protein flow cytometry (mHVEM-mCherry cells + mBTLA-His/anti-His green). The procedure: as §1
For the molecule B12, the binding result is given as “no binding”.

As to B23, the binding result is “no binding”.

On to B15, for which the binding result is on record as “no binding”.

In the case of B17, the binding result is “no binding”.

For B21, the binding result is given as “no binding”.

In the case of B22, the binding result is given as “no binding”.

In another assay the target is T4, mouse CD160 residues I30-H154 with …. The assay is described as follows: cell-protein flow cytometry (mHVEM-mCherry cells + mCD160-biotin/streptavidin-AF488). The procedure: as §1
For B10, the binding result was “no binding”.

As to B11, the binding result is “binds”.

In the case of B12, the binding result is recorded as “no binding”.

For the molecule B13, the binding result is given as “binds”.

With B14, the binding result is given as “binds”.

On to B15, for which the binding result is given as “no binding”.

For B17, the binding result was “no binding”.

With B18, the binding result is “binds”.

With B19, the binding result is “binds”.

With B21, the binding result was “no binding”.

Take B22: the binding result is listed as “no binding”.
